The source of these data is patent US20250051467A1 (JIANGSU HENGRUI PHARMACEUTICALS, published 2025).

One may read the EC50 as the midpoint of the concentration-response curve. Read a high EC50 as a need for much substance. Broadly, the Kd is the concentration at which binding is half-saturated. A high value points to weaker binding. In general, koff refers to the first-order rate constant of dissociation. A lower koff goes with slow dissociation. Broadly, the kon is the second-order rate constant of association. The EC50 (read off the curve) is the concentration that produces a half-maximal response. The low end stands for higher potency in that assay, the high end for lower potency in that assay.

The target in assay [1] is T1, h-FAP-His (human, UniProt Q12884 26-760).
T1 construct: range 26-760; Bought recombinant protein with a His tag; also called human FAP-His protein; FAP recombinant protein with a His tag
The assay can be described thus: ELISA, human FAP-His coated. Here is the method: A FAP recombinant protein with a His tag was directly used for coating. After the antibodies were added, a secondary antibody (an HRP-conjugated anti-human IgG antibody) and the HRP substrate TMB were added to measure the binding activity of the antibodies to the antigen. The assay comprises the following steps: A […] solution of human FAP-His protein was used to coat a 96-well microplate at 100 μL/well, and the plate was incubated overnight at 4° C. After a thorough wash, a blocking solution was added at 200 μL/well, and the plate was incubated at room temperature for 2 h. After a thorough wash, dilutions of test anti-FAP antibodies were added at 100 μL/well. The plate was incubated at room temperature for 1 h. After a thorough wash, a 1:20,000 dilution of an HRP-labeled goat anti-human IgG secondary antibody was added at 100 μL/well. The plate was incubated at room temperature for 1 h. After a thorough wash, TMB was added at 100 μL/well, and the plate was incubated in the dark for 15 min. 0.16 M sulfuric acid was added at 50 μL/well. The OD value at 450 nm was measured on a Thermo MultiSkanFc microplate reader, and the binding EC₅₀ values of the anti-FAP antibodies were calculated.
For orientation: ELISA stands for enzyme-linked immunosorbent assay.

The target of assay [2] is T2, human FAP on CHO cells (human, UniProt Q12884 1-760).
T2 construct: whole, on cells; also called CHO cell line overexpressing human FAP; CHOK1/FAP
The assay can be described thus: FACS, CHO cells overexpressing human FAP. Here is the method:
(§1) A FACS assay was used to measure the binding properties of anti-FAP antibodies on cells. The assay comprises the following steps: A CHO cell line overexpressing human FAP was constructed and plated (1E5/well). The test antibodies were added at 100 μL/well. The highest concentration was 100 nM. A 5-fold dilution was performed, yielding 8 concentrations in total. The plate was incubated at 4° C. for 1 h. Anti-hIgG Alexa Fluor-647 was added as a secondary antibody in the ratio of 1:500. The plate was incubated at 4° C. for 30 min, and a FACS assay was performed. Antibodies that bind to FAP can mark cells. The relation between the percentage of the marked cells that over-express human FAP among all cells and the antibody concentration is shown in FIG. 1. The relation between the percentage of the marked cells that over-express mouse FAP among all cells and the antibody concentration is shown in FIG. 2.
(In general: In flow cytometry, cells or beads pass a laser one at a time.)

The target in assay [3] is T1, h-FAP-His. The assay can be described thus: SPR, h-FAP-His analyte; lower end tied to Ab14 by Table 6. Here is the method: (§2) A CM5 sensor chip was used, and HBS-EP+buffer solution (10 mM HEPES, 150 mM NaCl, 3 mM EDTA, 0.05% surfactant P20) was used as the mobile phase. An anti-human IgG (Fc) antibody was made into a […] solution in a 10 mM sodium acetate buffer solution (pH 5.0) and immobilized by amino coupling. The test antibodies were diluted in HBS-EP+buffer solution and captured by the anti-human IgG (Fc) antibody on chip channels. h-FAP-His was dissolved in HBS-EP+buffer solution to prepare an analyte, and the analyte was serially diluted 2-fold. The diluted antibodies were passed through the experimental and reference channels at a flow rate of […], with 1 min of binding and 15 min of disassociation. 10 mM Glycine pH 1.5 was passed as a regeneration buffer solution for 30 s at a flow rate of […]. Data were analyzed. […] However, the binding affinities of the other anti-FAP antibodies obtained by screening at the same time in the present disclosure, such as Ab2, Ab4 and Ab5 (sequences not shown), for the antigen are lower than that of 28H1.
Background: SPR reads the build-up and loss of mass on a sensor chip optically.

In assay [4] the target is T1, h-FAP-His. The assay can be described thus: SPR, antibody captured by anti-human IgG Fc, h-FAP-His analyte. On the procedure:
as §2

In assay [5] the target is T3, mouse FAP on CHOK1 cells (mouse, UniProt P97321 1-761).
T3 construct: whole, on cells; also called cell surface mouse FAP
The assay can be described thus: FACS, percent of marked cells overexpressing mouse FAP, anti-hIgG Alexa Fluor-647 secondary antibody. On the procedure: as §1

Assay [6] concerns the target T1, h-FAP-His. The assay can be described thus: SPR, h-FAP-His analyte; upper end tied to Ab15 by Table 6. On the procedure:
as §2

Residue numbers refer to the chain shown, from its start.

T3 sequence (P97321 whole entry): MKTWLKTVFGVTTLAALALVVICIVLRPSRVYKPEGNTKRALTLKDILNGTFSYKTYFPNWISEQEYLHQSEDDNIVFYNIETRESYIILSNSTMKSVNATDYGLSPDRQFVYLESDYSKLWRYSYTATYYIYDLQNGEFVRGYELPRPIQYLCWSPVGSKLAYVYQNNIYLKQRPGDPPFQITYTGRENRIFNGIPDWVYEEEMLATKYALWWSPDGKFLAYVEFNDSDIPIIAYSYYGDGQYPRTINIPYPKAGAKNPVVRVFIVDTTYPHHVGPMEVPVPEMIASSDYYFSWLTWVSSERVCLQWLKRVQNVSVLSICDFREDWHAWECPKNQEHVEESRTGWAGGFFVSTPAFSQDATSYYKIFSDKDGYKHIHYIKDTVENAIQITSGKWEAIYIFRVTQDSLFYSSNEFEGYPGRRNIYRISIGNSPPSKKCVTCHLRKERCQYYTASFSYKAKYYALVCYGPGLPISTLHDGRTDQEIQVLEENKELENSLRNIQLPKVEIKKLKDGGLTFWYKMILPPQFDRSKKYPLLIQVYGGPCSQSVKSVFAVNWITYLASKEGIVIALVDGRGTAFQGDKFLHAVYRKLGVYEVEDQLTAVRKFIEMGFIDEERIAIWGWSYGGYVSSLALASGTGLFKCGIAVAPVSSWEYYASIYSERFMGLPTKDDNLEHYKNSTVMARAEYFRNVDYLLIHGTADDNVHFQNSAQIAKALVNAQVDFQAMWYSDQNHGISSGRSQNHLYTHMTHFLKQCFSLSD

B1: Ab14 (antibody, human IgG1, kappa, L234A L235A, V domains shown)
VH: QVQLQQSGVEVKKPGASVTVSCRASGYSFADHFIHWVRQAPGQGFQWMGWINPNRGVTHHAQDFQGRVAMTRDMSTDTVYMELTSLRSDDTAVYYCARDASLTARPYYFYGFDVWGQGTLVTVSS
VL: EIVLTQSPSSVSASVGDRVTITCRASQGISSWLAWYQQKPGKAPKLLIYAASSLQSGVPSRFSGSGSGTDFTLTISSLQPEDFATYYCQQANSFPLTFGGGTKVEIKR
notes: Fully human, IgG1 / kappa; also called anti-FAP antibody Ab14; Ab114
In assay [1], B1 displayed an EC50 of 417 µg/mL. This molecule also displayed an EC50 in assay [2] of 0.474 ng/mL. For the same molecule, the “fold affinity over 28H1” value in assay [3] is 3 to 6 times. For the same molecule, in assay [4], the affinity, expressed as Kd, was 0.365 nM; the “Ratio of KD of 28H1 to KD of test antibody” value was 3.6; the “Ratio of Kd of 28H1 to Kd of test antibody” value is 2.1; the koff was found to be 0.000121 s⁻¹. The molecule further yielded a kon in assay [4] of 332000 M⁻¹ s⁻¹. In addition, the “EC50 (read off the curve)” value in assay [5] was ~8 ng/mL.

B2: Ab15 (antibody, human IgG1, kappa, L234A L235A, V domains shown)
VH: B1 VH with V2M, Q5V, V9A, A100E
VL: B1 VL with L46S, L96P
notes: Fully human, IgG1 / kappa; also called anti-FAP antibody Ab15
Take B2: the EC50 in assay [1] worked out at 321 µg/mL. The same molecule showed an EC50 in assay [2] of 0.486 ng/mL. Further, the “fold affinity over 28H1” value in assay [6] was 3 to 6 times. Besides, in assay [4], the Kd stood at 0.215 nM, the “Ratio of KD of 28H1 to KD of test antibody” value stood at 6.1, the “Ratio of Kd of 28H1 to Kd of test antibody” value is 2.43 and the koff was determined as 0.000105 s⁻¹. For the same molecule, the kon in assay [4] amounted to 488000 M⁻¹ s⁻¹. In assay [5], the “EC50 (read off the curve)” value was ~8 ng/mL.
